Data as given in IntAct's records for PubMed 22643122.

B1: Mitogen-activated protein kinase 4 (Arabidopsis thaliana (Mouse-ear cress)), Q39024 (parent)
chain: MSAESCFGSSGDQSSSKGVATHGGSYVQYNVYGNLFEVSRKYVPPLRPIGRGAYGIVCAATNSETGEEVAIKKIGNAFDNIIDAKRTLREIKLLKHMDHENVIAVKDIIKPPQRENFNDVYIVYELMDTDLHQIIRSNQPLTDDHCRFFLYQLLRGLKYVHSANVLHRDLKPSNLLLNANCDLKLGDFGLARTKSETDFMTEYVVTRWYRAPELLLNCSEYTAAIDIWSVGCILGETMTREPLFPGKDYVHQLRLITELIGSPDDSSLGFLRSDNARRYVRQLPQYPRQNFAARFPNMSAGAVDLLEKMLVFDPSRRITVDEALCHPYLAPLHDINEEPVCVRPFNFDFEQPTLTEENIKELIYRETVKFNPQDSV
partner: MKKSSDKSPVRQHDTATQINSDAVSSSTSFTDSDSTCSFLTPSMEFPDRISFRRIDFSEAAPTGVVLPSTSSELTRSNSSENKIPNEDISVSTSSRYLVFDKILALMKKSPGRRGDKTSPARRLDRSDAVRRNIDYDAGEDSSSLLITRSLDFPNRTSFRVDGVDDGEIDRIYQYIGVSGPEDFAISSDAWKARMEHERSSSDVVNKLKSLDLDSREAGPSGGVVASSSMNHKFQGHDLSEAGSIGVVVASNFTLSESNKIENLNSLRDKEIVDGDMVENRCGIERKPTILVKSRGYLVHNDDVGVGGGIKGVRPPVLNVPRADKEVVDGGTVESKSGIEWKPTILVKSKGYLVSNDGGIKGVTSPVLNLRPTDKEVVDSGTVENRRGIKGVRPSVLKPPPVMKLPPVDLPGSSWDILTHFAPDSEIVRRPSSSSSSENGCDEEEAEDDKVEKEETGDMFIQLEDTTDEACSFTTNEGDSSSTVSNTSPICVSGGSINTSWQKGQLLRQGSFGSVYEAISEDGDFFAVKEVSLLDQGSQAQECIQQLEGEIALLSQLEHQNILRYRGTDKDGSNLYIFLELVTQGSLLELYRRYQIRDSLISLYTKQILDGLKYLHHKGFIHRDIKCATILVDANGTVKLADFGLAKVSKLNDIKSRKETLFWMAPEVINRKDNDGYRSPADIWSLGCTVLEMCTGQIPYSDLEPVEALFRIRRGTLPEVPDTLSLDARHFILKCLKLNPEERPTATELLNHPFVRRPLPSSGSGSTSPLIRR

Variants of: B1
Conditions: with mp3k2_arath MEKK2, O81472

effect of a mutation on the interaction	Variant
disrupting interaction	MSAESCFGSSGDQSSSKGVATHGGSYVQYNVYGNLFEVSRKYVPPLRPIGRGAYGIVCAATNSETGEEVAIKKIGNAFDNIIDAKRTLREIKLLKHMDHENVIAVKDIIKPPQRENFNDVYIVYELMDTDLHQIIRSNQPLTDDHCRFFLYQLLRGLKYVHSANVLHRDLKPSNLLLNANCDLKLEDFGLARTKSETDFMTEYVVTRWYRAPELLLNCSEYTAAIDIWSVGCILGETMTREPLFPGKDYVHQLRLITELIGSPDDSSLGFLRSDNARRYVRQLPQYPRQNFAARFPNMSAGAVDLLEKMLVFDPSRRITVDEALCHPYLAPLHDINEEPVCVRPFNFDFEQPTLTEENIKELIYRETVKFNPQDSV [G186E]
